This is an account of results in publication PMC8188299.

This assay deals with Recombinant hACE2 protein fused with mFc, residues 19-740 (human) (UniProt Q9BYF1). Kind of assay: SPR. (In general: Surface plasmon resonance follows binding to a sensor surface in real time, without labels.)
UniProt Q9BYF1, sequence (Q9BYF1 19-740): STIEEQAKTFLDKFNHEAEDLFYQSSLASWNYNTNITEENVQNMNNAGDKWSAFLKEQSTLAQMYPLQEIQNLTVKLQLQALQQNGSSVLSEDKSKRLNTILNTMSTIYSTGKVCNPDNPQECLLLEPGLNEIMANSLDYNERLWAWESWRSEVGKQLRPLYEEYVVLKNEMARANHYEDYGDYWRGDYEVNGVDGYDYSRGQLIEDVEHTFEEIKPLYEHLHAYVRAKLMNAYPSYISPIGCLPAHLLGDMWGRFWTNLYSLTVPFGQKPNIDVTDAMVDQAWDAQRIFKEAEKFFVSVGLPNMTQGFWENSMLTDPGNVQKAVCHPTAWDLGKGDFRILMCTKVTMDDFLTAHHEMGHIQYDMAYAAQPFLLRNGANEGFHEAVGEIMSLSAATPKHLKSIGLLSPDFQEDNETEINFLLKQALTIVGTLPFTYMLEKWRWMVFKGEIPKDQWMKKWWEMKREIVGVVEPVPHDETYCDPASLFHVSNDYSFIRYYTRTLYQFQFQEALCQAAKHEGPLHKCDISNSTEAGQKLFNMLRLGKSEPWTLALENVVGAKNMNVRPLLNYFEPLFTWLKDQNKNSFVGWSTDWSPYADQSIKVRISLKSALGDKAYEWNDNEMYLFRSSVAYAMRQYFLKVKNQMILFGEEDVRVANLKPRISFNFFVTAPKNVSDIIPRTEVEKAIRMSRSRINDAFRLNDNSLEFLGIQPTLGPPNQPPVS

For orientation: Kd means the constant that tells how readily two partners part at equilibrium. As for “Recombinant RsYN04 RBD protein, residues 309-527 (domain or fragment)”, the Kd turned out to be 15.9 µM.
